Measured values reported in patent publication EP1007666B1 (GENENTECH, INC., dated 2005).
Each block holds one binder with its values, some of them ahead of it.

Legend:
[1] = biological target: T1, rat NTNRα-IgG (soluble rNTNRα, product of pRK-rNTNRα-IgG) (rat); experiment: equilibrium binding of 125I-NTN with cold ligand to soluble NTNRα-IgG, protein A Sepharose precipitation, IGOR fit
T1 construct: Used as conditioned medium of transiently transfected 293 cells; also called soluble rNTNRα protein; rat fusion protein

[2] = biological target: T2, human NTNRα-IgG (soluble human NTNRα, product of pRK-hNTNRα-IgG) (human); experiment: equilibrium binding of 125I-NTN with cold ligand to soluble NTNRα-IgG, protein A Sepharose precipitation, IGOR fit (data not shown)
T2 construct: Used as conditioned medium of transiently transfected 293 cells; also called recombinant soluble human NTNRα; hNTNRα fusion

[3] = biological target: T3, recombinant soluble rat GDNFRα (rat, UniProt Q62997 25-430, limits assumed); experiment: displaceable equilibrium binding of 125I-rGDNF to recombinant soluble rGDNFRα; Scatchard inset of Fig. 6B
T3 construct: also called rGDNFRα; GFR-alpha-1
T3 sequence (looked up): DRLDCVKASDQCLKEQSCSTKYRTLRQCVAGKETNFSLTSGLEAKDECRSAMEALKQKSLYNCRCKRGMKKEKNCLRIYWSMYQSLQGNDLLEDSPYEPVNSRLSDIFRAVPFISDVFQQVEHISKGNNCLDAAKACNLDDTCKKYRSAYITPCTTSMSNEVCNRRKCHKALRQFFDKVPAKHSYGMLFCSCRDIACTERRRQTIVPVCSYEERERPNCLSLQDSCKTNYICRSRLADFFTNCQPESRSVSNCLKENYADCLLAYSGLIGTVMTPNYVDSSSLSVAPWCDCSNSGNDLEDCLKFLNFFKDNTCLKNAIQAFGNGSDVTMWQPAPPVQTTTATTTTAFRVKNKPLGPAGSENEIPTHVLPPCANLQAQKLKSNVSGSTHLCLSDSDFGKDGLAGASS

[4] = biological target: T1, rat NTNRα-IgG (soluble rNTNRα, product …); experiment: binding experiments with biotinylated ligand, format not described
[5] = biological target: T1, rat NTNRα-IgG (soluble rNTNRα, product …); experiment: equilibrium binding of 125I-NTN with cold ligand to soluble NTNRα-IgG, protein A Sepharose precipitation, IGOR fit; Scatchard inset of Fig. 6C

B1: human Neurturin (ligand, UniProt Q99748 96-197, looked up)
chain: ARLGARPCGLRELEVRVSELGLGYASDETVLFRYCAGACEAAARVYDLGLRRLRQRRRLRRERVRAQPCCRPTAYEDEVSFLDAHSRYHTVHELSARECACV
modifications: 125I-labelled in the direct binding assays; unlabelled as cold competitor
notes: also called human NTN; hNTN
Kd [1]: ~0.01 nM | Kd [2]: ~0.01 nM

B2: rat GDNF (ligand, UniProt Q07731 78-211, looked up)
chain: SPDKQAAALPRRERNRQAAAASPENSRGKGRRGQRGKNRGCVLTAIHLNVTDLGLGYETKEELIFRYCSGSCEAAETMYDKILKNLSRSRRLTSDKVGQACCRPVAFDDDLSFLDDSLVYHILRKHSAKRCGCI
modifications: 125I: iodinated either on tyrosine by the Bolton Hunter method or on lysine using lactoperoxidase
notes: also called rGDNF
Kd [3]: 3 pM

Next, values leading:

Kd [4]: > 1 mM
B3: GDNF, species not stated at these places (ligand)
chain: B2 chain
modifications: Biotinylated in the paragraph 22 experiment; natural form is a disulfide-linked homodimer
notes: also called biotinylated GDNF

Kd [5]: ~0.01 nM | Kd [2]: ~0.01 nM
B4: mouse Neurturin (ligand, UniProt P97463 96-195, looked up)
chain: PGARPCGLRELEVRVSELGLGYTSDETVLFRYCAGACEAAIRIYDLGLRRLRQRRRVRRERARAHPCCRPTAYEDEVSFLDVHSRYHTLQELSARECACV
modifications: 125I-labelled in the direct binding assays; unlabelled as cold competitor
notes: also called mouse NTN; mNTN
